Laboratory results as given in paper PMC5515880 (Scientific Reports, 2017).

How the values were obtained:
[1] = target: T1, GST-N protein (MHV N protein as a GST fusion construct) (mouse hepatitis virus (MHV-A59), UniProt P03416 1-454); experiment: pull-down; details: one partner purified
T1 sequence: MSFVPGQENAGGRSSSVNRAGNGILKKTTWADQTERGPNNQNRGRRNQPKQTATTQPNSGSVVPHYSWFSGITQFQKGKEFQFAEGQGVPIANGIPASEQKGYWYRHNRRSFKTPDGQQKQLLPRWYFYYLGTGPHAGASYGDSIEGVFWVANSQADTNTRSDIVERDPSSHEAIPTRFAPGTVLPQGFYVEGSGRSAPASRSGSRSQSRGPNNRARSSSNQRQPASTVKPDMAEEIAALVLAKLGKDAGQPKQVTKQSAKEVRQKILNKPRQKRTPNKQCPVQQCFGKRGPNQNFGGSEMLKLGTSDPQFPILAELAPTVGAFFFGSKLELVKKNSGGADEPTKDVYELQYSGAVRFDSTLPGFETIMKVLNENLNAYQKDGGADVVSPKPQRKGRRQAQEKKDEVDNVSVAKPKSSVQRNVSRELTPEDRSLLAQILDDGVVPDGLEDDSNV

[2] = target: T2, 6xHis-tagged N2b-N3 truncation of MHV N protein (mouse hepatitis virus (MHV-A59), UniProt P03416 258-454); experiment: pull-down; details: one partner purified
T2 sequence: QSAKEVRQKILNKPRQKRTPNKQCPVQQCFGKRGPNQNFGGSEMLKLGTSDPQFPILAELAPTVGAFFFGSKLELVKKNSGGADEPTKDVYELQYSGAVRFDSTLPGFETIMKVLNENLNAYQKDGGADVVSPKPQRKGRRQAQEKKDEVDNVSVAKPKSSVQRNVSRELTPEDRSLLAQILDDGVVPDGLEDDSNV

B1: 6xHis-tagged full length MHV N protein (natural protein)
chain: MSFVPGQENAGGRSSSVNRAGNGILKKTTWADQTERGPNNQNRGRRNQPKQTATTQPNSGSVVPHYSWFSGITQFQKGKEFQFAEGQGVPIANGIPASEQKGYWYRHNRRSFKTPDGQQKQLLPRWYFYYLGTGPHAGASYGDSIEGVFWVANSQADTNTRSDIVERDPSSHEAIPTRFAPGTVLPQGFYVEGSGRSAPASRSGSRSQSRGPNNRARSSSNQRQPASTVKPDMAEEIAALVLAKLGKDAGQPKQVTKQSAKEVRQKILNKPRQKRTPNKQCPVQQCFGKRGPNQNFGGSEMLKLGTSDPQFPILAELAPTVGAFFFGSKLELVKKNSGGADEPTKDVYELQYSGAVRFDSTLPGFETIMKVLNENLNAYQKDGGADVVSPKPQRKGRRQAQEKKDEVDNVSVAKPKSSVQRNVSRELTPEDRSLLAQILDDGVVPDGLEDDSNV
- binding result [1]: binds

B2: GST-N1 (MHV N protein truncation) (domain or fragment)
chain: MSFVPGQENAGGRSSSVNRAGNGILKKTTWADQTERGPNNQNRGRRNQPKQTATTQPNSGSVVPHYSWFSGITQFQKGKEFQFAEGQGVPIANGIPASEQKGYWYRHNRRSFKTPDGQQKQLLPRWYFYYLGTGPHAGASYGDSIEGVFWVANSQADTNTRSDIVERDPSSHEAIPTRFAPGTVLPQGFYVEGS
- binding result [2]: binds
